One block for each molecule: values may come before it.
How the values were obtained:
[1] = target: T1, BAM (Homo sapiens, UniProt P05067); assay: Effect of treating agents on BAM inhibitory activity in cofactor assay; assay type: biochemical; conditions: 1 μg/mL CFI, 10 μM BAM, 37° C. 40 min with agent; then 80 μg/mL CFH and C3b
T1 construct: Beta amyloid recombinant peptide (1-42) (Ultra Pure, TFA Form) was purchased from Covance; purchased Covance
Experimental: (§1) FIG. 11 Effect of Tween 20, Triton X-100 and Guanidine on BAM Activity. The effect of Tween 20, Triton X-100, and Guanidine on the activity of BAM was tested in the cofactor assay, where 1 μg/mL of CFI and 10 μM BAM was incubated at 37° C. for 40 min in the presence of the treating agents, then 80 μg/mL CFH and 80 μg/mL C3b was added and the reactions were lasted for 1 hr 20 min at 37° C. The iC3b concentration in the reaction was then measured using the ELISA method.
(§2) As shown in Section 3.10, mouse isotype control IgGs, especially mIgG2b, caused significant background in terms of increasing CFI bioactivity by potential interaction with BAM at the level of the hinge. To reduce such an effect, multiple agents such as Tween 20, Triton X-100, Guanidine and human serum albumin were tested in the cofactor assays to see if they will interfere with CFI bioactivity or BAM activity first. […] However, the effect didn't seem to be differential (FIG. 11). Taken together, none of the agents tested so far could resolve the IgG BAM binding issue. Lastly, another strategy was tested by reversing the order of addition of the reagents. Normally, BAM and anti-BAM antibody were incubated first, then CFI was added to the mixture, CFH and C3b was added last. […]

[2] = target: T2, CFI (Homo sapiens, UniProt P05156); assay: Effect of treating agents on CFI bioactivity in cofactor assay; assay type: biochemical; conditions: 1 μg/mL CFI, 10 μM BAM, 37° C. 40 min with agent; then 80 μg/mL CFH and C3b
T2 construct: purified serum CFI protein which has been successfully used in cofactor assays; purchased Complement Technology Inc (Tyler, Tex.); host or cells: human serum
T2 sequence (P05156 19-335 limits assumed): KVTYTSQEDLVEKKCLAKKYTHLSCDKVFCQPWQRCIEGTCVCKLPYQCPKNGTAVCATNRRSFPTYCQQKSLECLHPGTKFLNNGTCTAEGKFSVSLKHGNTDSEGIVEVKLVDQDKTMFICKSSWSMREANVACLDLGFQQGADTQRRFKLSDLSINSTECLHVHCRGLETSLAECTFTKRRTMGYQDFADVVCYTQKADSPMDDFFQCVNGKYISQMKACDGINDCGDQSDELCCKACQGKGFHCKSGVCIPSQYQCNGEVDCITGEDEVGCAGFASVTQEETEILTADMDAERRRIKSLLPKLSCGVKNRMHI
T2 sequence (P05156 340-583 limits assumed): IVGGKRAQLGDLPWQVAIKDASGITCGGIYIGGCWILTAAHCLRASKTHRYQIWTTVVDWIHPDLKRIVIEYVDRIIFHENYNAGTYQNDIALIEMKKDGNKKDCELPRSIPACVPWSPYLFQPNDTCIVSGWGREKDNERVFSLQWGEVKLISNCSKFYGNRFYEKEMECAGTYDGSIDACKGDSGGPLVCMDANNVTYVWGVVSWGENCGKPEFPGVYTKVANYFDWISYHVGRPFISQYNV
Experimental: as §1, §2

[3] = target: Complement C3b (Complement Technology) (human) (UniProt P01024); assay: cell-based or functional assay
[4] = target: Complement C3b (Complement Technology), P01024
[5] = target: T3, C3b (Homo sapiens, UniProt P01024); assay: CFI dose response in cofactor assay (conversion of C3b into iC3b); assay type: biochemical
T3 construct: Factor I, Factor H, C3b, and iC3b proteins were purchased; purchased Complement Technology Inc (Tyler, Tex.)
Experimental: A mixture of CFH (10-80 μg/mL) and C3b (80-150 μg/mL) was added into the tubes containing the CFI or BAM/CFI mixture. After a 30 minute-incubation at 37° C., the reaction mixtures were directly diluted into Assay Buffer and used for ELISA detection of iC3b. The detailed procedures other than indicated below were performed following the instruction provided with the ELISA kit. The diluted reaction mixtures and standards were applied to the 8-well strips at 60 μL per well and incubated at RT for 30 min. After washing 5 times in a plate washer with an in house-made washing buffer (10 mM Tris, 60 mM NaCl, 0.1% Tween 20, pH7.2), the 8-well strips were loaded with 50 μL of the HRP-anti-human iC3b conjugates per well and incubated at RT for 30 min. At the end of incubation, the 8-well strips were washed in the plate washer 5 times and incubated with 100 μL of the HRP substrates provided in the kit for additional 30 min. The reaction was stopped by addition of 50 μL Stop Buffer. The absorption at 405 nm was measured within 10 minutes. […] To answer these questions, a CFI dose response study was conducted where CFI was tested in a range of 10 ng/mL to 30 μg/mL in the presence or absence of 200 μM BAM1-42 (Lot 2, aged for 7 days without sonication) in the cofactor assay. […]

[6] = target: T3, C3b; assay: Cofactor assay of bioactivity of purified and recombinant CFI; assay type: biochemical; conditions: for estimated EC50 of CFI (95% limits in parentheses): three experiments in triplicate, CFH and C3b, 37° C. 1 hr
Experimental: The bioactivity measurements were conducted in triplicate and run on three occasions. Both CFI stock solutions were diluted in a 1/3 log series into 8 substock solutions starting at […] CFI. To maintain the CFI bioactivity in low concentration, 10 μg/mL CFH was used. Cofactor assays were set up by mixing […] of 2×CFI substock solutions with […] of CFH and C3b 2× mixture at a final concentration of […] for each reaction. The reaction mixtures were incubated at 37° C. for 1 hr, then the iC3b production in reactions was evaluated by a specific ELISA.
In the assay, 1 mU of CFI bioactivity is defined as the inverse of the amount of CFI that generates half of the maximal concentration of iC3b that can be produced (EC50). To obtain CFI bioactivity of a sample the following calculation is applied: 1/(EC50 of CFI in μg). This equation will result in CFI bioactivity levels expressed as U/μg of CFI. […] The model fitted to the data also predicted the EC50 recombinant to purified ratio.
This value provides the amount of CFI in ng that generates ½ the maximal amount of iC3b. Dividing these amounts by 1000 we convert the numbers to μg.

T1 sequence (P05067 672-713 limits assumed): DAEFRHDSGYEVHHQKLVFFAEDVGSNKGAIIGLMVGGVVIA

effect on inhibitory activity of BAM (in words) [1]: significantly reduced
effect on CFI bioactivity (in words) [2]: significantly reduced
Molecule: N=C(N)N [Guanidine]

CFI bioactivity (inverse of EC50 in µg) [3]: 3070 U/µg of CFI
EC50 of CFI in cofactor assay (conversion of C3b into iC3b, with CFH), PBS control [3]: 0.686 µg/mL
EC50 of CFI in cofactor assay (iC3b generation, 80 CFH and C3b, 1 hr), three experiments [3]: 0.0326 µg/mL
Molecule: Complement factor I, purified human serum protein (Complement Technology) (from UniProt P05156 19-583) (enzyme)

CFI bioactivity (inverse of EC50 in µg) [3]: 1640 U/µg of CFI
EC50 of CFI in cofactor assay (iC3b generation, 80 CFH and C3b, 1 hr), three experiments [3]: 0.0608 µg/mL
EC50 recombinant to purified ratio [3]: 1.8
Molecule: Recombinant complement factor I (GSK) (from UniProt P05156 19-583) (enzyme)

effect on CFI bioactivity (in words) [2]: didn't affect CFI bioactivity
Molecule: Triton X-100
effect on inhibitory activity of BAM (in words) [1]: abolished the inhibitory activity of BAM completely

B1: Complement factor I, purified human serum protein (Complement Technology) (protein)
chain: KVTYTSQEDLVEKKCLAKKYTHLSCDKVFCQPWQRCIEGTCVCKLPYQCPKNGTAVCATNRRSFPTYCQQKSLECLHPGTKFLNNGTCTAEGKFSVSLKHGNTDSEGIVEVKLVDQDKTMFICKSSWSMREANVACLDLGFQQGADTQRRFKLSDLSINSTECLHVHCRGLETSLAECTFTKRRTMGYQDFADVVCYTQKADSPMDDFFQCVNGKYISQMKACDGINDCGDQSDELCCKACQGKGFHCKSGVCIPSQYQCNGEVDCITGEDEVGCAGFASVTQEETEILTADMDAERRRIKSLLPKLSCGVKNRMHIRRKRIVGGKRAQLGDLPWQVAIKDASGITCGGIYIGGCWILTAAHCLRASKTHRYQIWTTVVDWIHPDLKRIVIEYVDRIIFHENYNAGTYQNDIALIEMKKDGNKKDCELPRSIPACVPWSPYLFQPNDTCIVSGWGREKDNERVFSLQWGEVKLISNCSKFYGNRFYEKEMECAGTYDGSIDACKGDSGGPLVCMDANNVTYVWGVVSWGENCGKPEFPGVYTKVANYFDWISYHVGRPFISQYNV
amount of CFI needed to cleave 50% of the available C3b (re-analysis, 4-parameter logistic) [4]: The amount of CFI needed to cleave 50% of the available C3b was approximately 632 ng/ml

EC50 of CFI (PBS control, no BAM) ([5]; CFI 10 ng/mL to 30 μg/mL, absence of BAM1-42): 0.686 µg/mL
amount of CFI needed to cleave 50% of the available C3b ([5]; no BAM, reanalysis with reparametrized 4-parameter logistic equation): approximately 632 ng/ml
B2: CFI: Complement factor I protein purchased from Complement Technology Inc (protein)
chain: B1 chain

EC50 recombinant to purified ratio ([6]; model fitted to data of three experiments, P<0.001 vs 1): 1.8 (1.5-2.2)
times lower bioactivity than material purified from serum ([6]; overall result): approximately 2 times
estimated EC50 of CFI (95% limits in parentheses) [6]: 60.8 (21.6-168.0) ng/ml
B3: recombinant CFI: CFI generated by recombinant means (GSK) (protein)
chain: B1 chain

estimated EC50 of CFI (95% limits in parentheses) [6]: 32.6 (9.3-108.8) ng/ml
B4: purified CFI: CFI purified from serum (CompTech) (protein)
chain: B1 chain

B5: Mouse plasma complement factor I (protein)
chain: RSPSASDLPQEELVDQKCLLQKYTHRSCNKVFCQPWQRCIEGTCICKLPYQCPRAGTPVCAMNGRSYPTYCHQKSFECLHPEIKFSHNGTCAAEGKFNVSLIYGRTKTEGLVQVKLVDQDERMFICKNSWSMAEANVACVDLGFPLGVRDIQGSFNISGNLHINDTECLHVHCRGVETSLAECAFTKRRTELSNGLAGVVCYKQDADFPTSLSFQCVNGKHIPQEKACNGVNDCGDQSDELCCKGCRGNASLCKSGVCIPDQYKCNGEVDCITGEDESRCEEDRQQNIPKGLARSAQGEAEIETEETEMLTPGMDNERKRIKSLLPKLSCGVKRNTHTRRKRVIGGKPANVGDYPWQVAIKDGQRITCGGIYIGGCWILTAAHCVRPSRAHSYQVWTALLDWLKPNSQLGIQTVKRVIVHEKYNGATFQNDIALIEMKMHTGKKECELPNSVPACVPWSPYLFQPNDRCIISGWGRGKDNQKVYSLRWGEVDLIGNCSQFYPDRYYEKEMQCAGTRDGSIDACKGDSGGPLVCEDINNVTYVWGIVSWGENCGKPEFPGVYTRVANYFDWISYHVGRSLVSQHNV
cofactor assay with mouse plasma as source of CFI, human CFH and C3b [4]: mouse plasma CFI indeed can convert human C3b into iC3b in the presence of human CFH albeit with 10-times less activity
